Measurements taken from US20230080534A1, “SEMG2 ANTIBODY AND USE THEREOF” (SHANGHAI BIOTROY BIOTECHNIQUE CO., LTD., priority 2020, published 2023).
One block for each substance: values may come before it. No end group written: not given here.

Assays:
CD27 protein = target: T1, CD27 protein (Homo sapiens, UniProt P26842); experiment: ELISA binding of BSA-conjugated SEMG2 (497-509) polypeptides to CD27; conditions: versus negative BSA control
T1 construct: the extracellular region of human CD27 protein fused to the Fe fragment of human antibody
T1 sequence (P26842 20-191 limits assumed): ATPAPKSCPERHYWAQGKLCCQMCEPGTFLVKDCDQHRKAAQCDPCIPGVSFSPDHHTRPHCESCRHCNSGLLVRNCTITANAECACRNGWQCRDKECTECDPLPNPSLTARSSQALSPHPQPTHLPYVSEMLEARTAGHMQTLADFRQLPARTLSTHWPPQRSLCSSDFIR
Method: (§1) FIG. 6 depicts the binding between SEMG2 epitope polypeptides and CD27, and its competitive inhibition of full-length SEMG2 binding to CD27. […] As shown in the figure, different concentrations of peptides are firstly co-incubated with CD27-Fc for binding, and then added into the micro-reaction plate pre-coated with SEMG2 protein. After co-incubation, the unconjugated molecules are washed off, and anti-Fc secondary antibody-HRP are then used for detecting and developing.
These mutant plasmids and CD27 expression vector were co-transfected into HEK293 cells, and the degree of GFP-fused 1-13 polypeptide variants binding to CD27 was detected by co-immunoprecipitation assay. […] Therefore, it can be seen that the amino acids at positions 497, 498, 499, 500, 501, 502, 503, 504, 505, 506 and 508 of SEMG2 have obvious effects on the binding to CD27. The peptide sequence 497-509 was coupled to BSA, and coated onto a 96-well microplate. CD27-hFc at different concentrations was used as the primary antibody to detect the ability of CD27 to bind to the peptide sequence.

[1] = target: T2, binding between full-length SEMG2 and CD27 (Homo sapiens, UniProt P26842); experiment: Peptide competition ELISA: CD27-Fc pre-incubated with peptide, added to SEMG2-coated plate; conditions: different concentrations of peptide co-incubated with CD27-Fc
T2 construct: the extracellular region of human CD27 protein fused to the Fe fragment of human antibody
T2 sequence (P26842 20-191 limits assumed): T1 sequence (P26842 20-191 limits assumed)
Method: as §1

human CD27 = target: T3, human CD27 (Homo sapiens, UniProt P26842); experiment: Co-immunoprecipitation of GFP-fused SEMG2 fragments with CD27 in co-transfected HEK293 cells; type: binding; conditions: GFP-fused fragment co-transfected with CD27 into HEK293 cells
T3 construct: HA; expressed in transfected cells; host or cells: HEK293
T3 sequence (P26842 20-260): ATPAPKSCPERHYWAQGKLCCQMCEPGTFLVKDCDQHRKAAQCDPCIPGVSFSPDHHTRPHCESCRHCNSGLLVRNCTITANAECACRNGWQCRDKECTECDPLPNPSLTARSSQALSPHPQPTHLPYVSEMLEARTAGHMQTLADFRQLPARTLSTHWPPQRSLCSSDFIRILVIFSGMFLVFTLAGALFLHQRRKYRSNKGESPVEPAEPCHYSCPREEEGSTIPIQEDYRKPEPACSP
Method: (§2) In co-immunoprecipitation experiment, cells were lysed in IP buffer (Thermo Scientific) and Roche complete protease inhibitor for 10 minutes, followed by the addition of benzonase (sigma) for 25 minutes at room temperature. The lysate was then centrifuged at 15,000 rpm at 4° C. to remove the precipitate. The supernatant was then incubated with primary antibody slowly rotated overnight at 4° C., followed by the addition of protein A or protein G dynabeads and incubated at 4° C. for 2 hours, washed for 4 times in PBST (PBS with 0.01% Tween 20), eluted with 50 mM DTT in SDS sample buffer for 10 minutes at 100° C., separated with SDS, and immunoblotted as previously described.
To further confirm which part of SEMG-2 binds to CD27, fragments of SEMG2 protein were designed. The amino acid sequence of full-length SEMG2 protein (SEQ ID NO:1) was divided into 6 segments of sequences, fused with GFP and named as SEMG2-P1, SEMG2-P2, SEMG2-P3, SEMG2-P4, SEMG2-P5 and SEMG2-P6 (See Table 1 for specific sequences, with corresponding abbreviation as P1-P6 respectively). Plasmids expressing these amino acid sequences were co-transfected with CD27 into HEK293 cells, and co-immunoprecipitation experiments were performed to identify the main fragment of SEMG2 that binds to CD27. […]

mouse CD27 = target: T4, mouse CD27 (Mus musculus, UniProt P41272); experiment: Co-immunoprecipitation of GFP-fused SEMG2 fragments with mouse CD27 in co-transfected HEK293 cells; type: binding; conditions: GFP-fused fragment co-transfected with mouse CD27 into HEK293 cells
T4 construct: HA; expressed in transfected cells; host or cells: HEK293
T4 sequence (P41272 24-250): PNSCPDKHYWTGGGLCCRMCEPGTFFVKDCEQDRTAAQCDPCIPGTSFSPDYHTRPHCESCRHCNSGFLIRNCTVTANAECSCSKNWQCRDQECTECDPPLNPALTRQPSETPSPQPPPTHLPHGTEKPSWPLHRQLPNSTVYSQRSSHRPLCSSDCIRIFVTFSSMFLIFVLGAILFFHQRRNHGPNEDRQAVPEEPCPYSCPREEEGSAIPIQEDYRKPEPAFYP
Method: as §2
To further confirm the key amino acids in the binding between SEMG2-P5 sequence and CD27, SEMG2(497-509) fragment was selected and named as SEMG2-P7 (the specific sequence is QIEKLVEGKSQIQ, abbreviated as P7 or SP7). SEMG2-P7(497-509), SEMG2-P5(positive control), SEMG2-P4 (negative control) or SEMG2-P6 (negative control) was co-transfected with CD27 into HEK293 cells respectively, including human CD27 and mouse CD27. […] This co-immunoprecipitation experiment confirmed that SEMG2(497-509) is the main structure that binds to human and mouse CD27.

Substance: BSA-conjugated human SEMG2 (497-509) polypeptide: human SEMG2 (497-509) peptide coupled to BSA (QIEKLVEGKSQIQ; also: coupled to BSA, site not given here)
binding to CD27 protein on the microplate (CD27 protein): can bind

Substance: QIAKLVEGKSQ [SEMG2-derived polypeptide derivative]
inhibitory effect on the binding between full-length SEMG2 and CD27 [1]: can inhibit the binding

Substance: QIEKLVEGKSQI (UNSURE (1)..(12) Epitope peptides)
inhibitory effect on the binding between full-length SEMG2 and CD27 [1]: can inhibit the binding

Further lines, results first:

inhibitory effect on the binding between full-length SEMG2 and CD27 [1]: can inhibit the binding
Substance: QIEKLVEGKSQ (UNSURE (1)..(11) Epitope peptides)

binding to CD27 (co-immunoprecipitation) (human CD27): bind
binding to mouse CD27 (co-immunoprecipitation) (mouse CD27): bind
inhibitory effect on the binding between full-length SEMG2 and CD27 [1]: can inhibit the binding
Substance: QIEKLVEGKSQIQ (UNSURE (1)..(13) Epitope peptides) [SEMG2-P7]
